The source of these data is patent US20240101668A1 (WUGEN, published 2024).

A value given as a limit tells only on which side of the number the result lay.

The target in assay [1] is T1, huCD33-G69-Fc recombinant protein (human, UniProt P20138 18-259).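 Note: biolayer interferometry: scFvs captured from periplasmic extracts on anti-V5-loaded streptavidin biosensors, antigen association for 2 min, buffer dissociation for 5 min, 1:1 Langmuir fit giving off-rate.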
T1 construct: extracellular domain; also called CD33 R69G
Nature of the assay: BLI. (In general: In BLI a coated tip is dipped into the sample, and binding shifts an interference pattern.)
Method: Discovered scFvs were analyzed for binding to huCD33-R69-His or huCD33-G69-Fc recombinant proteins (for anti-CD33 scFvs; for CLL-1 scFvs, huCLL1-K244-Avi-Tev-His or huCLL1-Q244-Avi-Tev-His were used; for FLT3, huFLT3-T227-His or huFLT3-M227-Fc were used) using BLI on a ForteBio Octet HTX instrument. Streptavidin-coated biosensors were loaded with biotinylated anti-V5 tag monoclonal antibody for 5 min and were then quenched and blocked with 20 μM amine-PEG2-Biotin for 5 min. scFvs were captured on biosensors from scFv clone periplasmic extracts. huCD33 (or huCLL-1, or huFLT3) proteins were then associated with the captured scFvs for 2 minutes, followed by dissociation with buffer (1×HBST [10 mM HEPES pH 7.4, 150 mM NaCl, 0.05% Tween-20], 1 g/L BSA) for 5 minutes. […] Data was fitted with 1:1 Langmuir equation and off-rate values were reported.

Assay [2] concerns the target T2, huCD33-G69 stably expressed on Jurkat cells (human, UniProt P20138 18-364).
T2 construct: whole, on cells; >200,000 receptors per cell; also called CD33 Mutant; CD33 R69G
Nature of the assay: FACS on cells.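 Note: fixed Jurkat lines probed with myc-tagged scFv periplasmic extracts, anti-myc PE flow cytometry, PE MFI fold binned − <2, + 2–10, ++ 10–30, +++ >30.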
Method: (§1) Jurkat cells were engineered to stably express either the huCD33-R69 or huCD33-G69 variant at >200,000 receptors per cell. Parental, huCD33-R69, and huCD33-G69 Jurkat cell lines were stained with differing levels of CellTrace Violet Cell Proliferation Kit (ThermoFisher, cat. #C34557) to barcode each cell line. Barcoded Jurkat cell lines were fixed with paraformaldehyde and incubated with myc-labeled scFv periplasmic extracts and a secondary anti-myc PE-conjugated monoclonal antibody. Appropriate positive and negative controls were used. Stained cells were analyzed by flow cytometry (CytoFLEX, Beckman Coulter, Inc.) and binding was assessed by change in PE mean fluorescence intensity (MFI) of the barcoded cell populations.
(§2) Data is disclosed below in Table 16c, reporting FACS fold change over parental as (−), indicating <2 fold; (+), indicating 2-10 fold; (++), indicating 10-30 fold; and (+++), indicating >30 fold.

Assay [3] has as its target T3, huCD33-R69 stably expressed on Jurkat cells (human, UniProt P20138 18-364).
T3 construct: whole, on cells; >200,000 receptors per cell; also called CD33 WT; CD33^ARG69
Nature of the assay: FACS on cells.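 Note: fixed Jurkat lines probed with myc-tagged scFv periplasmic extracts, anti-myc PE flow cytometry, PE MFI fold binned − <2, + 2–10, ++ 10–30, +++ >30.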
Method: as §1, §2

T3 sequence (P20138 18-364): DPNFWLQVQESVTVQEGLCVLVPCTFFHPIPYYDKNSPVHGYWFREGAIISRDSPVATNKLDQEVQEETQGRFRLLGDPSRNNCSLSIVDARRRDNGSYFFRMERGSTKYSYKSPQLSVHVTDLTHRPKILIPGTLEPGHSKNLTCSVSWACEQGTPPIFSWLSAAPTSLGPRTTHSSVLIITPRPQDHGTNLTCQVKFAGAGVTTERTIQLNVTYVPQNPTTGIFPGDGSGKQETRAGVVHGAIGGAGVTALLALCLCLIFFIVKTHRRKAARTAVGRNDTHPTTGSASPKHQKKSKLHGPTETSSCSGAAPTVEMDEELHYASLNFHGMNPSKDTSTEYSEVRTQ
T1 sequence (P20138 18-259 R69G): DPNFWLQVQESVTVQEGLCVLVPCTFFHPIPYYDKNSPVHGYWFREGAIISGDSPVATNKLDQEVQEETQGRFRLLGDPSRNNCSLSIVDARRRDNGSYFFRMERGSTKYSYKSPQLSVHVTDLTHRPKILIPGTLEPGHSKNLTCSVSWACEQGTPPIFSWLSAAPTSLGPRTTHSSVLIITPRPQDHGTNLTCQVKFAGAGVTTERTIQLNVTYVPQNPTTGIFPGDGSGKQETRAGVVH
T2 sequence (P20138 18-364 R69G): as the sequence (P20138 18-364) above, with R52G counted along it

B1: Polypeptide No. 113 (scFv, V domains shown)
VH: QVQLVQSGAEVKKPGSSVKVSCKASGGTFSSYDINWVRQAPGQGLEWMGGLIPVFGTTHYAQNFQGRVTITADESTSTAYMELSSLRSEDTAVYYCATGLGVTTSNYYYGMDVWGQGTLVTVSS
VL: DIQMTQSPSSLSASVGDRVTITCRASQGIRNDIGWYQQKPGKAPKLLIYAASTLQSGVPSRFSGSGSGTDFTLTISSLQPEDFATYYCQQTYMMPYTFGQGTKLEIKR
notes: scFv
B1: the binding result in assay [1] was “binds”. For the same molecule, the “FACS geometric mean fold change over Jurkat parental” value (“FACS geometric mean fold change” below) is 10 to 30 fold in assay [2] and greater than 30 fold in assay [3].

B2: Polypeptide No. 97 (scFv, V domains shown)
VH: EVQLLESGGGLVQPGGSLRLSCAASGFTFRSYWMTWVRQAPGKGLEWVSVISGSGDNTYYADSVKGRFTISRDNSKNTLYLQMNSLRAEDTAVYYCARETTWGMDVWGQGTTVTVSS
VL: DIQMTQSPSSLSASVGDRVTITCRASQSISSYLNWYQQKPGKAPKLLIYDASNLETGVPSRFSGSGSGTDFTLTISSLQPEDFATYYCQQSSIIPLTFGGGTKVEIKR
notes: scFv
For the molecule B2, the binding result in assay [1] is reported as “binds”. Also, the “FACS geometric mean fold change” value in assay [2] was 2 to 10 fold; in assay [3] it was 10 to 30 fold.

B3: Polypeptide No. 101 (scFv, V domains shown)
VH: EVQLLESGGGLVQPGGSLRLSCAASGFTFSSYGVHWVRQAPGKGLEWVSAISGDGGDTYYADSVKGRFTISRDNSKNTLYLQMNSLRAEDTAVYYCARDTWDYSNYGGIDYWGQGTLVTVSS
VL: DIQMTQSPSSLSASVGDRVTITCRASQNINTFLNWYQQKPGKAPKLLIYAASTLQSGVPSRFSGSGSGTDFTLTISSLQPEDFATYYCQQYDSFPLTFGGGTKVEIKR
notes: scFv
B3: the binding result in assay [1] is recorded as “binds”. In addition, the “FACS geometric mean fold change” value in assay [2] and in assay [3] was greater than 30 fold each time.

B4: Polypeptide No. 106 (scFv, V domains shown)
VH: QVQLVQSGAEVKKPGASVKVSCKASGYTFTGYYMHWVRQAPGQGLEWMGRIKPNSGGTDYAQKFQGRVTMTRDTSTSTVYMELSSLRSEDTAVYYCARGAYSGSYYGPIEYFQHWGQGTLVTVSS
VL: DIQMTQSPSSLSASVGDRVTITCRASQSISWFLNWYQQKPGKAPKLLIYAASSLQNGVPSRFSGSGSGTDFTLTISSLQPEDFATYYCQQYGSFPPTFGGGTKVEIKR
notes: scFv
For B4, the binding result in assay [1] is on record as “binds”. The “FACS geometric mean fold change” value in assay [2] and in assay [3] was 2 to 10 fold each time.

B5: Polypeptide No. 96 (scFv, V domains shown)
VH: QVQLVQSGAEVKKPGASVKVSCKASGGTFSSYAISWVRQAPGQGLEWMGWMNPSSANTGYAQKFQGRVTMTRDTSTSTVYMELSSLRSEDTAVYYCAKDEMELLTAFDIWGQGTMVTVSS
VL: DIQMTQSPSSLSASVGDRVTITCRASQSIGSWLAWYQQKPGKAPKLLIYGVSTLHSGVPSRFSGSGSGTDFTLTISSLQPEDFATYYCQQSYSTPPTFGQGTKLEIKR
notes: scFv
Take B5: the binding result in assay [1] was “binds”. Moreover, the “FACS geometric mean fold change” value in assay [2] and in assay [3] was greater than 30 fold in each case.

B6: Polypeptide No. 110 (scFv, V domains shown)
VH: QVQLVQSGAEVKKPGASVKVSCKASGYTFTDYYVHWVRQAPGQGLEWMGWMNPNSGNTGYAQKFQGRVTMTRDTSTSTVYMELSSLRSEDTAVYYCARDFIWVEGYLASPPPRFDYWGQGTLVTVSS
VL: DIQMTQSPSSLSASVGDRVTITCRASQRIGNWLAWYQQKPGKAPKLLIYAASSLQSGVPSRFSGSGSGTDFTLTISSLQPEDFATYYCQQSYSTPLTFGQGTKLEIKR
notes: scFv
With B6, the binding result in assay [1] is “binds”. The “FACS geometric mean fold change” value in assay [2] and in assay [3] was greater than 30 fold each time.

B7: Polypeptide No. 112 (scFv, V domains shown)
VH: QVQLVQSGAEVKKPGSSVKVSCKASGSTLTGYDIHWVRQAPGQGLEWMGGIIPFLGTASYAQEFQGRVTITADESTSTAYMELSSLRSEDTAVYYCARGGGSGYDLDYWGQGTLVTVSS
VL: DIQMTQSPSSLSASVGDRVTITCRSSESISSWLAWYQQKPGKAPKLLIYSASTLQSGVPSRFSGSGSGTDFTLTISSLQPEDFATYYCQQSYSTPVTFGQGTRLEIKR
notes: scFv
With B7, the binding result in assay [1] is on record as “binds”. Further, the “FACS geometric mean fold change” value in assay [2] and in assay [3] was 2 to 10 fold each time.

B8: Polypeptide No. 104 (scFv, V domains shown)
VH: EVQLLESGGGLVQPGGSLRLSCAASGFTFSSSWMHWVRQAPGKGLEWVAVISYDGSEEYYADSVKGRFTISRDNSKNTLYLQMNSLRAEDTAVYYCARLTDYGDYVLGRYLSDWGQGTLVTVSS
VL: DIQMTQSPSSLSASVGDRVTITCRASQGISSYLAWYQQKPGKAPKLLIYAASSLQSGVPSRFSGSGSGTDFTLTISSLQPEDFATYYCQQSYSIPPTFGQGTKLEIKR
notes: scFv
For the molecule B8, the binding result in assay [1] was “binds”. Moreover, the “FACS geometric mean fold change” value in assay [2] and in assay [3] was greater than 30 fold each time.

B9: Polypeptide No. 114 (scFv, V domains shown)
VH: QVQLVQSGAEVKKPGASVKVSCKASGGTFSKYAISWVRQAPGQGLEWMGWMNPNSGNTGYAQKFQGRVTMTRDTSTSTVYMELSSLRSEDTAVYYCARDQGLTGYFDLWGRGTLVTVSS
VL: DIQMTQSPSSLSASVGDRVTITCRASQSIGNWLAWYQQKPGKAPKLLIYKASSLESGVPSRFSGSGSGTDFTLTISSLQPEDFATYYCQQSYNTPPTFGPGTKVDIKR
notes: scFv
Consider B9, for which the binding result in assay [1] is listed as “binds”. Further, the figures for the “FACS geometric mean fold change” value in assay [2] and in assay [3] were 10 to 30 fold and greater than 30 fold, respectively.

B10: Polypeptide No. 98 (scFv, V domains shown)
VH: QVQLVQSGAEVKKPGASVKVSCKASGGSFSSSAINWVRQAPGQGLEWMGWMNPNSGNTGYAQKFQGRVTMTRDTSTSTVYMELSSLRSEDTAVYYCARDRGIAVAGASPYYYYGMDVWGQGTTVTVSS
VL: DIQMTQSPSSLSASVGDRVTITCRASQDIGSYLAWYQQKPGKAPKLLIYAASSLQSGVPSRFSGSGSGTDFTLTISSLQPEDFATYYCHQSYSTPFTFGQGTKLEIKR
notes: scFv
In the case of B10, the binding result in assay [1] is on record as “binds”. Moreover, the “FACS geometric mean fold change” value in assay [2] was greater than 30 fold; in assay [3] it was 10 to 30 fold.

B11: Polypeptide No. 105 (scFv, V domains shown)
VH: EVQLLESGGGLVQPGGSLRLSCAASGFTFNNAWMTWVRQAPGKGLEWVAVISYDGSNKYYADSVKGRFTISRDNSKNTLYLQMNSLRAEDTAVYYCARMAVAGKGAFDIWGQGTMVTVSS
VL: DIQMTQSPSSLSASVGDRVTITCRASQSIYSWLAWYQQKPGKAPKLLIYAASTLQSGVPSRFSGSGSGTDFTLTISSLQPEDFATYYCQQTYSTPVTFGQGTKVEIKR
notes: scFv
With B11, the binding result in assay [1] is recorded as “binds”. In addition, the “FACS geometric mean fold change” value in assay [2] and in assay [3] was 10 to 30 fold each time.

B12: Polypeptide No. 102 (scFv, V domains shown)
VH: EVQLLESGGGLVQPGGSLRLSCAASGFTFSNAWMSWVRQAPGKGLEWVSGIGGSGGTIYYADSVKGRFTISRDNSKNTLYLQMNSLRAEDTAVYYCAREVAAPLHPFGYYYYMDVWGKGTTVTVSS
VL: not shown
notes: scFv
With B12, the binding result in assay [1] is “binds”. Further, the “FACS geometric mean fold change” value in assay [2] and in assay [3] was 10 to 30 fold throughout.

B13: Polypeptide No. 103 (scFv, V domains shown)
VH: QVQLVQSGAEVKKPGASVKVSCKASGYTFTGYYMHWVRQAPGQGLEWMGWMNPDSGDTNYAQNFQGRVTMTRDTSTSTVYMELSSLRSEDTAVYYCATTRQPHYGMDVWGQGTTVTVSS
VL: not shown
notes: scFv
Consider B13, for which, in assay [1], the binding result is reported as “binds”. The “FACS geometric mean fold change” value in assay [2] and in assay [3] was 10 to 30 fold each time.

B14: Polypeptide No. 99 (scFv, V domains shown)
VH: QVQLVQSGAEVKKPGSSVKVSCKASGYTFSDYHIHWVRQAPGQGLEWMGWMNPNSGNTGYAQKFQGRVTITADESTSTAYMELSSLRSEDTAVYYCARTHSSGYYYWFDPWGQGTLVTVSS
VL: DIQMTQSPSSLSASVGDRVTITCRASQGISNNLNWYQQKPGKAPKLLIYQASNKDTGVPSRFSGSGSGTDFTLTISSLQPEDFATYYCQQSYSSPPTFGQGTKVEIKR
notes: scFv
For the molecule B14, in assay [1], the binding result is on record as “binds”. Further, the entries for the “FACS geometric mean fold change” value in assay [2] and in assay [3] were 10 to 30 fold and greater than 30 fold, respectively.

B15: Polypeptide No. 107 (scFv, V domains shown)
VH: QVQLVQSGAEVKKPGSSVKVSCKASGYTFTDYYIHWVRQAPGQGLEWMGGIIPIFGTANYAQKFQGRVTITADESTSTAYMELSSLRSEDTAVYYCAREPLWFGESSPHDYYGMDVWGQGTLVTVSS
VL: DIQMTQSPSSLSASVGDRVTITCQASQDISNYLNWYQQKPGKAPKLLIYAASTLQSGVPSRFSGSGSGTDFTLTISSLQPEDFATYYCQQSYSSPPTFGQGTKVEIKR
notes: scFv
As to B15, in assay [1], the binding result is given as “binds”. Moreover, the “FACS geometric mean fold change” value in assay [2] and in assay [3] was 10 to 30 fold throughout.

B16: Polypeptide No. 109 (scFv, V domains shown)
VH: QVQLVQSGAEVKKPGSSVKVSCKASGYTFTTYGISWVRQAPGQGLEWMGWMNPNSGNTGYAQKFQGRVTITADESTSTAYMELSSLRSEDTAVYYCAREGGDGDYPDYWGQGTLVTVSS
VL: EIVMTQSPATLSVSPGERATLSCRASQSISSSSLAWYQQKPGQAPRLLIYGASTRATGIPARFSGSGSGTEFTLTISSLQSEDFAVYYCQQYETAPYTFGQGTKLEIKR
notes: scFv
As to B16, in assay [1], the binding result was “binds”. The “FACS geometric mean fold change” value in assay [2] and in assay [3] was 10 to 30 fold throughout.

B17: Polypeptide No. 111 (scFv, V domains shown)
VH: QVQLVQSGAEVKKPGASVKVSCKASGGTFTSYGISWVRQAPGQGLEWMGWINPNTGVTNYAQDFQGRVTMTRDTSTSTVYMELSSLRSEDTAVYYCANEQGGFDYWGQGTLVTVSS
VL: EIVMTQSPATLSVSPGERATLSCRASQSVAGSYLAWYQQKPGQAPRLLIYGASTRATGIPARFSGSGSGTEFTLTISSLQSEDFAVYYCQQYYSTPLTFGGGTKVEIKR
notes: scFv
Take B17: the binding result in assay [1] is recorded as “binds”. Further, the “FACS geometric mean fold change” value in assay [2] is 10 to 30 fold; in assay [3], greater than 30 fold.
